In publication PMC6537880 (Analytical chemistry, 2016):

Biological target: the molecule itself
Assay: native MS

B1: AAV8 capsid viral protein VP3 (natural protein)
chain: MAAGGGAPMADNNEGADGVGSSSGNWHCDSTWLGDRVITTSTRTWALPTYNNHLYKQISNGTSGGATNDNTYFGYSTPWGYFDFNRFHCHFSPRDWQRLINNNWGFRPKRLSFKLFNIQVKEVTQNEGTKTIANNLTSTIQVFTDSEYQLPYVLGSAHQGCLPPFPADVFMIPQYGYLTLNNGSQAVGRSSFYCLEYFPSQMLRTGNNFQFTYTFEDVPFHSSYAHSQSLDRLMNPLIDQYLYYLSRTQTTGGTANTQTLGFSQGGPNTMANQAKNWLPGPCYRQQRVSTTTGQNNNSNFAWTAGTKYHLNGRNSLANPGIAMATHKDDEERFFPSNGILIFGKQNAARDNADYSDVMLTSEEEIKTTNPVATEEYGIVADNLQQQNTAPQIGTVNSQGALPGMVWQNRDVYLQGPIWAKIPHTDGNFHPSPLMGGFGLKHPPPQILIKNTPVPADPPTTFNQSKLNSFITQYSTGQVSVEIEWELQKENSKRWNPEIQYTSNYYKSTSVDFAVNTEGVYSEPRPIGTRYLTRNL
binding result: binds
